# Results taken from US11578136B2, “Compositions and methods for treating cancer” (INNATE PHARMA, priority 2017, dated 2023).
# Substitutions are numbered along the chain they refer to.
# Columns and labels:
# [1] = target: T1, CD39 mutants transfected in Hek-293T cells (Homo sapiens, UniProt P49961, E142K/M139A/R138A); assay: Epitope mapping: binding to CD39 mutants by flow cytometry; settings: mutant 19: R138A, M139A, E142K; vs wild-type CD39
# T1 construct: expressed in transfected cells; host or cells: HEK-293T cells
# T1 sequence (P49961 1-510 R138A/M139A/E142K): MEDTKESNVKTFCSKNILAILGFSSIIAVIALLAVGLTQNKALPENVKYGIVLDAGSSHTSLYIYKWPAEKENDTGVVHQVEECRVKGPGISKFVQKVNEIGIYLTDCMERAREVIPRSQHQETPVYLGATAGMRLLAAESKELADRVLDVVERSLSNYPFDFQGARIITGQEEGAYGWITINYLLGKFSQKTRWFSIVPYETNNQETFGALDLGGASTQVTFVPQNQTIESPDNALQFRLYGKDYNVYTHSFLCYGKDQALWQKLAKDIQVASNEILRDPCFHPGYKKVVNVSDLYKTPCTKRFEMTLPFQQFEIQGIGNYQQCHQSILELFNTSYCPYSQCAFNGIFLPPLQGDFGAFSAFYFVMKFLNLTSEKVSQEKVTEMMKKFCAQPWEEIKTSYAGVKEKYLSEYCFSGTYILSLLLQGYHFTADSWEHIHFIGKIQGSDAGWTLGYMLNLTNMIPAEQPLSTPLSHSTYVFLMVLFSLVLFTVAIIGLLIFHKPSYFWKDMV
# Experimental: (§1) CD39 mutants were generated by PCR. The sequences amplified were run on agarose gel and purified using the Macherey Nagel PCR Clean-Up Gel Extraction kit (reference 740609). The purified PCR products generated for each mutant were then ligated into an expression vector, with the ClonTech InFusion system. The vectors containing the mutated sequences were prepared as Miniprep and sequenced. After sequencing, the vectors containing the mutated sequences were prepared as Midiprep using the Promega PureYield™ Plasmid Midiprep System. HEK293T cells were grown in DMEM medium (Invitrogen), transfected with vectors using Invitrogen's Lipofectamine 2000 and incubated at 37° C. in a CO2 incubator for 48 hours prior to testing for transgene expression. The targeted amino acid mutations in the table 1 below are shown using numbering of SEQ ID NO: 1.
# (§2) In order to define the epitopes of anti-CD39 antibodies, we designed CD39 mutants defined by substitutions of amino acids exposed at the molecular surface over the surface of CD39. Mutants were transfected in Hek-293T cells, as shown in the table 1, using numbering of SEQ ID NO: 1.
# (§3) Dose-ranges of I-394 (10-2.5-0.625-0.1563-0.0391-0.0098-0.0024-0.0006 μg/ml) are tested on the 20 generated mutants by flow cytometry. […] Mutant 5 contains amino acid substitutions at residues Q96, N99, E143 and R147.
# (§4) Mutants were transfected in Hek-293T cells, as shown in the table 1, using numbering of SEQ ID NO: 1. Dose-ranges of antibodies I-394 were tested on the 20 mutants by flow cytometry. […] Mutant 19 includes substitutions at residues R138, M139 and E142. The core epitope of I-394 thus includes one or more (or all of) residues R138, M139 and E142.
# (§5) Mutants were transfected in Hek-293T cells, as shown in the table 1, using numbering of SEQ ID NO: 1.Dose-ranges of test antibodies (10-2.5-0.625-0.1563-0.0391-0.0098-0.0024-0.0006 μg/ml) are tested on the 20 generated mutants by flow cytometry.
# [2] = target: T2, CD39 mutants transfected in Hek-293T cells (Homo sapiens, UniProt P49961, E143A/N99A/Q96A/R147E); assay: as above; settings: mutant 5: Q96A, N99A, E143A, R147E; vs wild-type CD39
# T2 construct: expressed in transfected cells; host or cells: HEK-293T cells
# T2 sequence (P49961 1-510 Q96A/N99A/E143A/R147E): T1 sequence (P49961 1-510 R138A/M139A/E142K) with Q96A, N99A, A138R, A139M, K142E, E143A, R147E
# Experimental: as §1, §2, §3, §4, §5
# [3] = target: T3, human Ramos lymphoma cells (CD39) (Homo sapiens, UniProt P49961); assay: Antibody titration on Ramos cells by flow cytometry; format: binding; settings: result in words
# T3 construct: host or cells: Ramos human lymphoma cells
# T3 sequence (P49961 1-510): T1 sequence (P49961 1-510 R138A/M139A/E142K) with A138R, A139M, K142E
# Experimental: Antibody I-394 was tested in two repeated experiments for binding to CHO cells expressing human CD39, CHO cells expressing cynomolgus (Macaca fascicularis) CD39, CHO cells expressing murine CD39, and human Ramos lymphoma cells (ATCC™, reference CRL-1596). Cells were incubated with various concentration of unlabeled anti-CD39 antibody from 30 μg/ml to 5×10^−4 μg/ml, for 30 minutes at 4° C. After washes, cells were incubated with Goat anti-mouse H+L labeled secondary antibody for 30 min at 4° C.
substance,measurement,setting,value
"I-394: anti-CD39 antibody, VH SEQ ID NO: 6, VL SEQ ID NO: 7; human IgG1 Fc with L234A/L235E/G237A/A330S/P331S",binding to cells expressing mutant 19 of CD39,[1],complete loss of binding
same,binding to cells expressing mutant 5 of CD39,[2],strongly reduced binding
same,binding to Ramos lymphoma cells,[3],bound
